Laboratory results published in patent US20090214535A1 (Chugai, published 2009).
Where two headings read alike, the source gives them in different places.

T1: human Mpl (on BaF3-human Mpl cells) (human, UniProt P40238 26-635)
T1 sequence (looked up): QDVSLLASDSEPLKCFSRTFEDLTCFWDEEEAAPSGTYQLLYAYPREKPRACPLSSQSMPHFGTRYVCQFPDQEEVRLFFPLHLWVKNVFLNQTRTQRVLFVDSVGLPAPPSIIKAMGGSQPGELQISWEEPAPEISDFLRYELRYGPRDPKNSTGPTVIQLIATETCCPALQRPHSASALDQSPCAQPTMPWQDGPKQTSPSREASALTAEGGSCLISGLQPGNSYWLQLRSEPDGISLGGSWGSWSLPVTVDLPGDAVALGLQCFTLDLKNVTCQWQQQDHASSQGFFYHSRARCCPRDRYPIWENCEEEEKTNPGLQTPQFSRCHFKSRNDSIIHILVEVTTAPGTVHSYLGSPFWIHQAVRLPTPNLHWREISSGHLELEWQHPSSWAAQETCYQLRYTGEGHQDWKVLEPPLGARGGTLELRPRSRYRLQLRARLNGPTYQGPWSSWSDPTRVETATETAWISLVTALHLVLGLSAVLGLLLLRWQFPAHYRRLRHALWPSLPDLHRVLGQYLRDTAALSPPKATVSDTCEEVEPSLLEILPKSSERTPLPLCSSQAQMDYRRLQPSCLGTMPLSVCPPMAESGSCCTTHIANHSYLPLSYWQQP


Columns and labels:
Experiment in all cases: cell-based or functional assay
[1] = biological target: Mpl on the BaF3 cells of FIG. 42 (human or monkey not stated)
[2] = biological target: T1, human Mpl (on BaF3-human Mpl cells)
[3] = biological target: monkey Mpl (on BaF3-monkey Mpl cells) (monkey)
[4] = biological target: T1, human Mpl (on BaF3-human Mpl cells); remark: listed apart in the source
[5] = biological target: monkey Mpl (on BaF3-monkey Mpl cells) (monkey); remark: listed apart in the source
[6] = biological target: T1, human Mpl (on BaF3-human Mpl cells); remark: listed apart in the source
[7] = biological target: monkey Mpl (on BaF3-monkey Mpl cells) (monkey); remark: listed apart in the source

Row | Binder | EC50 (read off the curve) [1] | EC50 (read off the curve) [A) BaF-human Mpl] [2] | EC50 (read off the curve) [B) BaF-monkey Mpl] [3] | EC50 (read off the curve) [A) BaF-human Mpl] [4] | EC50 (read off the curve) [B) BaF-monkey Mpl] [5] | EC50 (read off the curve) [A) BaF-human Mpl] [6] | EC50 (read off the curve) [B) BaF-monkey Mpl] [7]
1 | humanized anti-human Mpl antibody hVB22B u2-wz4 sc(Fv)2 (bulk, before separation of the conformational isomers) (scFv) QVQLVQSGPEVKKPGASVKVSCKASGYTFTNSWMNWVRQRPGKGLEWIGRIYPGDGETIYNGKFRVRVTITADESTSTAYMQLSSLRSEDTAVYYCARGYDDYSFAYWGQGTTVTVSSGGGGSGGGGSGGGGSDIVMTQSPLSLPVTPGEPASISCRSSKSLLHSNGNTYLYWFLQKPGQSPQLLIYRMSNLASGVPDRFSGSGSGTDFTLKISRVEAEDVGVYYCMQHIEYPFTFGQGTKLEIKGGGGSGGGGSGGGGSQVQLVQSGPEVKKPGASVKVSCKASGYTFTNSWMNWVRQRPGKGLEWIGRIYPGDGETIYNGKFRVRVTITADESTSTAYMQLSSLRSEDTAVYYCARGYDDYSFAYWGQGTTVTVSSGGGGSGGGGSGGGGSDIVMTQSPLSLPVTPGEPASISCRSSKSLLHSNGNTYLYWFLQKPGQSPQLLIYRMSNLASGVPDRFSGSGSGTDFTLKISRVEAEDVGVYYCMQHIEYPFTFGQGTKLEIK | – | – | – | ~0.06 nM | ~0.02 nM | ~0.04 nM | ~0.04 nM
2 | hVB22B u2-wz4 sc(Fv)2 peak 2 (single chain diabody-type conformational isomer) (scFv) QVQLVQSGPEVKKPGASVKVSCKASGYTFTNSWMNWVRQRPGKGLEWIGRIYPGDGETIYNGKFRVRVTITADESTSTAYMQLSSLRSEDTAVYYCARGYDDYSFAYWGQGTTVTVSSGGGGSGGGGSGGGGSDIVMTQSPLSLPVTPGEPASISCRSSKSLLHSNGNTYLYWFLQKPGQSPQLLIYRMSNLASGVPDRFSGSGSGTDFTLKISRVEAEDVGVYYCMQHIEYPFTFGQGTKLEIKGGGGSGGGGSGGGGSQVQLVQSGPEVKKPGASVKVSCKASGYTFTNSWMNWVRQRPGKGLEWIGRIYPGDGETIYNGKFRVRVTITADESTSTAYMQLSSLRSEDTAVYYCARGYDDYSFAYWGQGTTVTVSSGGGGSGGGGSGGGGSDIVMTQSPLSLPVTPGEPASISCRSSKSLLHSNGNTYLYWFLQKPGQSPQLLIYRMSNLASGVPDRFSGSGSGTDFTLKISRVEAEDVGVYYCMQHIEYPFTFGQGTKLEIK | – | – | – | ~0.05 nM | ~0.02 nM | ~0.04 nM | ~0.03 nM
3 | hVB22B u2-wz4 (v1) sc(Fv)2 (scFv) QVQLVQSGPEVKKPGASVKVSCKASGYTFTNSWMNWVRERPGKGLEWIGRIYPGDGETIYNGKFRVRVTITADESTSTAYMQLSSLRSEDTAVYYCARGYDDYSFAYWGQGTTVTVSSGGGGSGGGGSGGGGSDIVMTQSPLSLPVTPGEPASISCRSSKSLLHSNGNTYLYWFLEKPGQSPQLLIYRMSNLASGVPDRFSGSGSGTDFTLKISRVEAEDVGVYYCMQHIEYPFTFGQGTKLEIKGGGGSGGGGSGGGGSQVQLVQSGPEVKKPGASVKVSCKASGYTFTNSWMNWVRKRPGKGLEWIGRIYPGDGETIYNGKFRVRVTITADESTSTAYMQLSSLRSEDTAVYYCARGYDDYSFAYWGQGTTVTVSSGGGGSGGGGSGGGGSDIVMTQSPLSLPVTPGEPASISCRSSKSLLHSNGNTYLYWFLKKPGQSPQLLIYRMSNLASGVPDRFSGSGSGTDFTLKISRVEAEDVGVYYCMQHIEYPFTFGQGTKLEIK | – | – | – | ~0.04 nM | ~0.04 nM | – | –

Other lines, results leading:

Row | EC50 (read off the curve) [1] | EC50 (read off the curve) [A) BaF-human Mpl] [2] | EC50 (read off the curve) [B) BaF-monkey Mpl] [3] | EC50 (read off the curve) [A) BaF-human Mpl] [4] | EC50 (read off the curve) [B) BaF-monkey Mpl] [5] | EC50 (read off the curve) [A) BaF-human Mpl] [6] | EC50 (read off the curve) [B) BaF-monkey Mpl] [7] | Binder
4 | ~0.6 ng/mL | ~0.008 nM | ~0.02 nM | – | – | – | – | VB22B sc(Fv)2 peak 2 (single chain diabody-type conformational isomer) (scFv) QVQLQQSGPELVKPGASVKISCKASGYAFTNSWMNWVKQRPGKGLEWIGRIYPGDGETIYNGKFRVKATLTADKSSSTAYMDISSLTSEDSAVYFCARGYDDYSFAYWGQGTLVTVSAGGGGSGGGGSGGGGSDIVMTQAAPSIPVTPGESVSISCRSSKSLLHSNGNTYLYWFLQRPGQSPQLLIYRMSNLASGVPDRFSGSGSGTAFTLRISRVEAEDVGVYYCMQHIEYPFTFGSGTKLEIKGGGGSGGGGSGGGGSQVQLQQSGPELVKPGASVKISCKASGYAFTNSWMNWVKQRPGKGLEWIGRIYPGDGETIYNGKFRVKATLTADKSSSTAYMDISSLTSEDSAVYFCARGYDDYSFAYWGQGTLVTVSAGGGGSGGGGSGGGGSDIVMTQAAPSIPVTPGESVSISCRSSKSLLHSNGNTYLYWFLQRPGQSPQLLIYRMSNLASGVPDRFSGSGSGTAFTLRISRVEAEDVGVYYCMQHIEYPFTFGSGTKLEIK
5 | – | ~0.01 nM | ~0.03 nM | – | – | – | – | mouse anti-human Mpl antibody mVB22B sc(Fv)2 (before separation of the conformational isomers) (scFv) QVQLQQSGPELVKPGASVKISCKASGYAFTNSWMNWVKQRPGKGLEWIGRIYPGDGETIYNGKFRVKATLTADKSSSTAYMDISSLTSEDSAVYFCARGYDDYSFAYWGQGTLVTVSAGGGGSGGGGSGGGGSDIVMTQAAPSIPVTPGESVSISCRSSKSLLHSNGNTYLYWFLQRPGQSPQLLIYRMSNLASGVPDRFSGSGSGTAFTLRISRVEAEDVGVYYCMQHIEYPFTFGSGTKLEIKGGGGSGGGGSGGGGSQVQLQQSGPELVKPGASVKISCKASGYAFTNSWMNWVKQRPGKGLEWIGRIYPGDGETIYNGKFRVKATLTADKSSSTAYMDISSLTSEDSAVYFCARGYDDYSFAYWGQGTLVTVSAGGGGSGGGGSGGGGSDIVMTQAAPSIPVTPGESVSISCRSSKSLLHSNGNTYLYWFLQRPGQSPQLLIYRMSNLASGVPDRFSGSGSGTAFTLRISRVEAEDVGVYYCMQHIEYPFTFGSGTKLEIK
6 | – | – | – | ~0.1 nM | – | – | – | hVB22B u2-wz4 (v3) sc(Fv)2 (scFv) QVQLVQSGPEVKKPGASVKVSCKASGYTFTNSWMNWVRERPGKGLEWIGRIYPGDGETIYNGKFRVRVTITADESTSTAYMQLSSLRSEDTAVYYCARGYDDYSFAYWGQGTTVTVSSGGGGSGGGGSGGGGSDIVMTQSPLSLPVTPGEPASISCRSSKSLLHSNGNTYLYWFLKKPGQSPQLLIYRMSNLASGVPDRFSGSGSGTDFTLKISRVEAEDVGVYYCMQHIEYPFTFGQGTKLEIKGGGGSGGGGSGGGGSQVQLVQSGPEVKKPGASVKVSCKASGYTFTNSWMNWVRKRPGKGLEWIGRIYPGDGETIYNGKFRVRVTITADESTSTAYMQLSSLRSEDTAVYYCARGYDDYSFAYWGQGTTVTVSSGGGGSGGGGSGGGGSDIVMTQSPLSLPVTPGEPASISCRSSKSLLHSNGNTYLYWFLEKPGQSPQLLIYRMSNLASGVPDRFSGSGSGTDFTLKISRVEAEDVGVYYCMQHIEYPFTFGQGTKLEIK
